The nanobody polyreactivity screen of Harvey et al. (2022)

Experiment: yeast display, Sf9 membrane polyspecificity reagent, FACS + sequencing; frameworks hold sequencing errors
How it was run: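 Using colony PCR, genes from sorted yeast display clones were amplified, then sequenced on MiSeq at 2 × 250 and filtered by CDR length. The clones had been stained with 10% biotinylated, detergent-solubilized Sf9 membrane reagent for 1 hour at 4 °C and sorted by FACS into low and high (top ~1%) gates on anti-HA and streptavidin fluorescence. Polyreactivity labels come from the gate of origin.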

Sequence | polyreactivity (PSR sort gate)
QVQLVESGGGLVQAGGSLRLSCAASGRTFSGYAMGWYRQAPGKERELVAGITWNGGRTYYADSVKGRFTISRDNAKNTVYLQMNILKPDDTAVYYCYKLGAVYPKYGYWGQGTQVTVSS | high polyreactivity
QVQLVESGGGLVQAGGSLRLSSAASGIIFAVYAMGWYRQAPGKERELVAAISTSGGRTYYADSVKGRFTISRDNAKNTVYLQMKSLKPEDTAVYYCAAPLRVSYDGMYYWGQGTQVTVSS | high polyreactivity
QVQLVESGGGLVQAGGSLRLSCAASGRTFRPYAMGWYRQAPGKERDLVAAIDSSGTSTYYADSVKGRFTISRDNAKKTVYLKMNSLKPEDTAVYYCAKAWPDHWYSRYDYWGQGTQVTVSS | low polyreactivity
QVQLVESGGGLVQAGGSLRLICAASGSTIFENVMGWYRQAPGKEREFVAAINTSGGSTYYADSVKGRFTISRDNAKNTVYLQMNILKPEDTAVYYCARDSYWEMDYWGQGTQVTVSS | low polyreactivity
QVQLVESGGGLVQAGGSLRLSCAASGFISDVYAMGWYRQAPGKERELVAVITWRGSTYYADSVKGRFTISRDNAKNTVYLQMNSLKPEDTAFYYCAAESQGDWAFDYWGQGTQVTVSS | low polyreactivity
QVQLVESGAGLVQAGGSLRLSCAASGFNFRENAMGWYRQAPGKERELVAAISRSGGSTYYADSVKGRFTISRDNAKNTVYLQMNSLKPEDTAVYYCAAPKDYDYWGQGTKVTVSS | low polyreactivity
QVHLVESGGGLVQAGGSLRLSCAASGFPFADNAMGWNRQAPGKERELVAAISRRGGSTYYADSVKGRFTISRDNAKNTVYLQMNSLKAEDTAVYYCAALGNRYPYYYYYGSYYPVEYWGQGTQVTVSS | high polyreactivity
QVQLVESGGGLVQAGGSLRLSCAASGSTFGYYTMGWYRQAPGKERELVASIDVSGDSTSYADSVKGRLTISRDNAKNTVYLQMNSLKPEDTAVYYCNTGRYPTSPTHNYWGQGTQVTVSS | low polyreactivity
QVQLVESGGGLVQAGGSLRLSCAASGRIFLVYAMGWYRQAPGKERELVAAIRSGGSTYYADSVKGRFTISRDNAKNTVYLQMNSLKPEVTAVYYCIADSPWYWVRYGVSRRDYWGQGTQVTVSS | low polyreactivity
QVQLVESGGGLVQAGGSLRLSCAASGFTLYRYAMGWYRQAPGKERELVAAISNSGGSTYYADSVKARFTISRDNAKNTVYLQMNSLKPEDTAVYYCAADPGYNVYGYYYWGQGTQVTVSS | high polyreactivity
QVQLVESGGGLVQAGGSLRLSCAASGSTIGGYAMGWYRQAPGKERELVAAISWDDVRTYYADSVKGRFTISRDNAKNTVYLLMNSLKPEDTAVYYCNTDGLIAIRGLWWVEYDYWGQGTQVTVSS | low polyreactivity
QVQLVESGGGLVQAGGSLRLSCAASGRIFVRYAKGWYRQAPGKERELVAAISRSGGSTYYADSVKGRFTISRDNAKNTVYLQMNSLKPEDTAVYYCNAAYWRRYYQLEDYWGQGTQVTVSS | high polyreactivity
QVQLVESGGGLVQAGGSLRLSCAASGSTFPFYAMGWYRQAPGKERELVAAITSGGSTYADSVKGRFTISRDNAKNTVYLQMNSLKAEVTAVYYCAASWPRWWRFGYWGQGTQVSVSS | low polyreactivity
QVQIVESGGVLVQAGGSLRLSCAASGITLRVYVMGWYRQAPGKERELVAAITSRGDRTYYADSVKGRSTISRDNAKNTVYLQMNSLKPEDTAVYDCAARYYSYPPGLSQTRLTYYYWGQGTQVTVSS | high polyreactivity
QVQLVESGGGLVQAGGSLRLSCAASGRTFNSYPMGWYRQAPGTERELVAAINYRGTSTYYSDSVKGRFTISRDNAMNTVYLQMNSLKPEDTAVYYCNARQTRSSRINYPEGIYNYWGQGTQVNVSS | high polyreactivity
QDQLVESGGGLVQAGGSLRLSCAAYGNTIIRYAMGWYRQAPGKERELVAAIAYSGGRTYYADSVKGRFTISRDNAKNTVFLQMNSLKPEDTAVYYCNAASRYGGDYWGQGTQVTVSS | high polyreactivity
QVQLVESGGGLVQAGGSLRLSCAASGQTIAAYVMGWYRQAPGKERELVARISRSGGSTYYADSVKGRFTISRDNAKNTVYLQMNSLKPEDTAVYYCAAARPYKTSLPGAPYDYWGQGTQVTVSS | low polyreactivity
QVQLVESGGVLVQAGRSLRLSCAASGSPFRIYAMGWYRQAPGKERELVAAISSGGRTNYADSVKGRFTISRDNAKNTVYLQMNSLKPEDTAVYYCATVGYSSSTSGNRYGRAYYYWGQGTQVTVSS | high polyreactivity
QVQLVESGGGLVQAGGSLRLSFAASGSIFPVYAMGWYKQAPGKERELVAAITTAGRTYYADSVKGRFTISRDNAKNTVYLQMNSLKPEDTAVYYCNARSRKVLTVDGGYWGQGTQVTVSS | high polyreactivity
QVQLVESGGGLVQAGGSLRLSCAASGPTNAMGWYRQAPGKERELVAAITKSGGSTYYADSVKGRFTISRDNAKNTVYLLMNSLKPEDTAVYYCALILRHTAYYYWGQGTQVTVSS | high polyreactivity
QVQLVESGGGLVQAGGSLRLSCAASGSTFPGYAMGWYRQAPGKERELVAAISASGGSTYYADSVKGRFTISRDNAKNTVYLQMNSLKPEDTAVYYCAKVLSRGASADDYWGQGTQVTVSS | low polyreactivity
QVQLVYSRRGLVQAGGSLRLSCAASGLIFAWYAIGWYRQATVNVRELVATISWNGDRTYYADSVKGRFTIARDNGKTSVYLQINSLQAEDTAVYYCAAYSVFRSYDYWGQGTQVTVSS | high polyreactivity

Sequence | polyreactivity (PSR sort gate)
QVQLVESGGGLVQAGGSLRLSCAASGLTLGSYAMGWYRLAPGKERELVAAISRRSGRTYYADSVKGRFTISRDNAKNTVYVQMNSLKPEDTAVYYCNRGYTAQVYTEFDYWGHGTQVTVSS | low polyreactivity
QFQLEESGGGLVQAGGSLRLSCAASGFIFTDNGMGRYRQATGKERELVAAINSDGSTYYADSVKGRFTISRDNAKNTVYLQMTSLIPEYTAVYYCAAGSFDRYFWYDYWGQGTQVTVSS | low polyreactivity
QVQLVESGGGLVQAGVSLRLSCAASGSTFVVNAMGWYRQAPGKERELVAAITQSGGSTFYADSVKGRFTISRDNAKNTVYLQMNSLKPEDTAVYYWGQGTQVTVSS | low polyreactivity
QVQLVESGGGLVQAGGRLRLSCAASGSIFYRNAMGWYRQAPGKERELVAAIRYSGDNTYYADSVKGRFTISRDNAKNTVYLQMNSLKPEDTAVYYCAADFPDYEYWGQGTQVTVSS | high polyreactivity
QVQLVESGGGLFQAGGSLRLSCAPSGHIFFYYTMGWYRPAPGKERELVAGITIGGSTNYADSVKGRFTISRDNAKNTVYLQMNSLKPEDTAVYYCNVVKYVYIYSYWESYYWGQGTQVTVSS | low polyreactivity
QVQLVESRGGLVQAGGSLRLSCAASGSIFLVYAMGWYRQAPGKERELVAAIDSSGGSTYYADSVKGRFTISRDNAKNTVYLQMNSLKREDTAVYYCAVYIRYPWSGRYDYWGQGTQVTVSS | high polyreactivity
QVQLVESGGGLVQAGGSLRLSCAASGRTFWGYGMGWYRQAPGKERELVATISSGGSTYYADSVKGRFTISRDNAKNTVYLQMNSLKPEDTAVYYCAARPPRTYWRYQSDYWGQGTQLTVSS | high polyreactivity
QVQLVESGGGLVQAGGSLRLSCAASGRIFYVYTMGWYRQARGKERELVAAISWSGGSTHYADSVKGRFTISRDNAKNTVYLQMNSLKTEYTAVYYCNKGVVSRVAFEYWGQGTQVTVSS | low polyreactivity
QVQLVESGGGLVQEGGSLRLSCAASGSIFVLYAMGWYRQAPGKERQLVAAINYEGASTYYADSVKGRFTISRDNAKITVYLQMNSLKPEDKAVFYCAARWQFNIDVQLYLFEYWGQGTQVTVSS | low polyreactivity
QVQIVESGGGLVQAGGSLRLSCAASGSIFWPYTMGWYRQAPGKERELVAAISYSGGRTYYADSVKGRFTISRDNAKNTVYLQMNRLKPEDTAVYYCAAGTYSRGSREDYWGQGTQVTVSS | high polyreactivity
QVQLVESGGGLVQAGGSLRLSCAASGRTFDSYTMGWYRQAPGKERELVAAIRSSGGRTYADSVKGRFTISRDNAKNTVYLQMNSLKPEDTAVYYCAAARSYWAKYYYWGQGTQVTVSS | high polyreactivity
QVQLEESGGGLVQAGGSLRLSCAASGSIFYQYDMGWYRQAPGKERELVAAITQRGGRTYYADSVKGRFTISRDNAKNTVDLKMNSLKPELTAVYYCAADNDSYWGYVYWGQGTQVTVSS | high polyreactivity
QVQLGESGGGLVQAGGSLRLSCAASGRIFGAYAMGWYRPAPGKERELVAAITSRGGNTYYADSVKGRFTISRDNAKKTAYLQLNSLKPQDTAVYYCAARHDKRRQYYVGQSAFDYGGQGTQVTVSS | low polyreactivity
QGQLVESGGGLVQAGGSLRLSCAASGRTYDYNAMGWYRQAPWKEWELVAAISSGGSITHYADSVKGRFTISRDNAKNTVYFQMYSLKPEDTAVYYCNAAHLAHRFIGYTRWNYYYWGQGTQVTVTS | high polyreactivity
QVQLEESGVGLVQAGGSLRLSCAASGSIIHYNAMGWYRKAPGKERELVASISSGGRTYYADSVKGRFTISRDNAKNTVYLQMNSLNQEDTAVYYCAAEYYQTTYVWWTYDYSWGLGTQVTVSS | low polyreactivity
QVQLVESRGGLVQAGGSLRLSCAASGSIFGRNAMGWYRQAPGKERELVAAIRSGDSTNYADSVKGRFTISRDNAKNTVYLQMNSLKPEDTAVYYCAADYIFWHRRDKKSVVMDYWGQGTQVTVSS | low polyreactivity
QVQLVESGGGLLQAGGSLRLSCAASGRTIDVYAMGWYTQAPGKERELVAAISWSGGGTYYADSVKGRFTISRDNAKNTVYFQMHSLKAEDTAVYYCAAALTFALDPNRYTYSDYYYWGQGTQVTVSS | low polyreactivity
QVQLVESGGGLVQAGGSLRLSCAASGRIFRWNAMGWYRQAPGKERELVAAISASGGRTYYADSVKGRFTISRDNAKNTVYLQMISLKPEDTAVYYCAAGPVYYYVPIGYDYWGQGTQVTVSS | high polyreactivity
QVQLVESGGGLVQAGGSLRLSCAASGIIFGYYAMAWYRQAPGTERELVAAITSGASTDYADSVKGRFTISRDNAKNNVYLQMNSLKPEDTAVYYCNADTSASTYTFPFDYWGQGTQVTVSS | low polyreactivity
QFQLVESGGGLVQAGGSLRLSCAASGFIFTNYAMGWYRQAPGKEWELVAAINRSGGRTYYADSVKGRFTISRDNAKNTVYLQMNSLKPEDNAVYYCAAKGVSYRPAYDYWGQGTQVTVSS | high polyreactivity
QVQLVESGGGLVQAGATIRLSCAASVRTFESNALGWYRQEPGKERELVAGITSGGITNYADSVKGRFTISRDNAKNNVYLQMNSLKPEDTAVYYCEFYYWGQGTQVTVSS | low polyreactivity
